Measurements from patent publication US6749856B1, “Mucosal cytotoxic T lymphocyte responses” (priority 1997, dated 2004).

Tested on: P18IIIB-I10 peptide-pulsed 51Cr labeled P815 targets
Assay: CTL 51Cr release assay with PP, LP or SP effector cells of immunized mice
Type: in vivo, BALB/c mice
Conditions: day 35

B1: rmIL-12 (protein, UniProt P43431 23-215; P43432 23-335, looked up)
Interleukin-12 subunit alpha: RVIPVSGPARCLSQSRNLLKTTDDMVKTAREKLKHYSCTAEDIDHEDITRDQTSTLKTCLPLELHKNESCLATRETSSTTRGSCLPPQKTSLMMTLCLGSIYEDLKMYQTEFQAINAALQNHNHQQIILDKGMLVAIDELMQSLNHNGETLRQKPPVGEADPYRVKMKLCILLHAFSTRVVTINRVMGYLSSA
Interleukin-12 subunit beta: MWELEKDVYVVEVDWTPDAPGETVNLTCDTPEEDDITWTSDQRHGVIGSGKTLTITVKEFLDAGQYTCHKGGETLSHSHLLLHKKENGIWSTEILKNFKNKTFLKCEAPNYSGRFTCSWLVQRNMDLKFNIKSSSSSPDSRAVTCGMASLSAEKVTLDQRDYEKYSVSCQEDVTCPTAEETLPIELALEARQQNKYENYSTSFFIRDIIKPDPPKNLQMKPLKNSQVEVSWEYPDSWSTPHSYFSLKFFVRIQRKKEKMKETEEGCNQKGAFLVEKTSTEVQCKGGNVCVQAQDRYYNSSCSKWACVPCRVRS
change in HIV-specific CTL activity in mucosal or systemic sites, rmIL-12 by IP route (1 μg IP each day of IR immunization with PCLUS3-18IIIB 50 μg): did not lead to significant changes
change in CTL level in mucosal and systemic sites, rmIL-12 + DOTAP intrarectally with peptide (1 μg IR): significant increase in the CTL level
induction of mucosal or systemic CTL in IR-immunized IFNγ−/− mice treated mucosally with rmIL-12 (rmIL-12 1 μg/mouse + DOTAP IR with peptide): did not lead to the induction of mucosal or systemic CTL
